According to paper PMC5993284, “Peptide inhibitors of the anaphase promoting-complex that cause sensitivity to microtubule poison” (PLoS ONE, 2018):
Entries after “also recorded” stand apart in the source; their conditions may differ.

How the values were obtained:
[1] = target: T1, APC/C^Cdc20 (Saccharomyces cerevisiae, UniProt P16522+P53886); experiment: biochemical; assay type: biochemical; conditions: 220 μM peptide; 35S-Pds1 substrate; time course 0-60 minutes; vs buffer only; n = 3
T1 construct: constructed within full-length Cdc20 by site-directed mutagenesis for analysis in vitro in the APC/C^Cdc20 assay; The APC/C was purified for enzyme assays from 1 mL of TAP-tagged Cdc16 yeast extract (SCSY51); made in house; host or cells: Cdc20: in vitro transcription/translation in rabbit reticulocyte lysate, used unpurified; APC/C: S. cerevisiae strain SCSY51 (Cdc16-TAP) extract, captured on IgG magnetic beads
Procedure: (§1) Full-length, radio-labeled protein purifications were preformed as previously described. ^35S-Pds1 was prepared in a 500 μL IVT/T (In Vitro Transcription/Translation) reaction (Promega, USA), which contained 400 μL rabbit reticulocyte lysate, 20 μL of L-^35S-methionine (PerkinElmer, USA), 10 μg of plasmid DNA, and the remaining volume as nuclease-free ddH2O as recommended by the manufacturer. The reaction mixture was incubated for 2 hours at room temperature and gently mixed every 30 minutes. The reaction was added to pre-equilibrated IgG Sepharose beads (GE Healthcare, USA) in Bio-spin disposable chromatography columns (Bio-Rad, USA) for binding for 2 hours at room temperature. To ensure efficient binding, the beads were re-suspended several times every 30 minutes. After binding, the beads were washed with 5 mL wash buffer, containing 200 mM 4-(2-hydroxyethyl)-1-piperazineethanesulfonic acid (HEPES) at pH 8.0, 150 mM NaCl, 10% (v/v) glycerol, and 1 mM dithiothreitol (DTT). The ^35S-Pds1 was cleaved from the beads using TEV (Tobacco Etch Virus) protease in 1x TEV buffer (Invitrogen, USA) for 2 hours at room temperature, and the mixture was re-suspended several times every 30 minutes to promote efficient cleavage. The elution was collected and concentrated by employing an Amicon Ultra filter column (Millipore, Ireland). The concentrated ^35S-Pds1 was collected in a new tube, and stored at -20 °C.
(§2) The production of Cdc20 or Cdh1 was prepared by IVT/T reactions, where 16 μL of rabbit reticulocyte lysate, 20 μM L-methionine, 0.4 μg of plasmid DNA, and a volume of nuclease-free ddH2O for a total volume of 20 μL. This freshly synthesized Cdc20 or Cdh1 protein was used directly in all APC/C assays after a 1-hour synthesis reaction at room temperature. The APC/C was purified for enzyme assays from 1 mL of TAP-tagged Cdc16 yeast extract (SCSY51) where extract was mixed with 50 μL 50:50 slurry magnetic beads (Invitrogen, Norway) for 2 hours at 4 °C. After incubation, the beads were washed with 3 mL APC/C wash buffer (200 mM of HEPES, 150 mM of NaCl and 10% (v/v) of glycerol). APC/C bound to IgG magnetic beads was used directly in the enzyme assays.
(§3) APC/C assays were performed by adding the reaction contents in following order: 4.3 μL of QAH buffer, 20 μL of rabbit reticulocyte lysate containing Cdc20 or Cdh1 with or without an additional volume of recombinant checkpoint protein(s) or inhibitor peptides, 2.4 μL ubiquitin aldehyde (Boston Biochem, USA), APC/C, 16 μL pre-charged E1/E2/ATP/ubiquitin mix, and 13.3 μL of ^35S-Pds1 with QAH buffer (20 mM HEPES at pH 8.0, 100 mM NaCl, and 1 mM MgCl2). The E1/E2/ATP/ubiquitin mix were pre-charged by mixing 1 μL of E1 (Boston Biochem, USA), 1 μL of E2 (Boston Biochem, USA), 14.4 μL of ATP, 14.4 μL of […] (Boston Biochem, USA), and 17.2 μL of QAH buffer and incubated for 15 minutes at room temperature. Approximately 15 μL of samples were taken out at each time point, and the reaction was stopped by the addition of 2x protein sample buffer (125 mM Tris-HCl pH 6.8, 4% SDS, 20% glycerol, and 0.002% bromophenol blue, with 10% (final v/v) 2-mercaptoethanol added in fresh directly before use).
For inhibitor titration and time-course experiments, recombinant Bub3, Mad2, Mad3, and the Mad3-Bub3 complex were expressed and purified as previously described. […] For inhibition of APC/C the co-factor Cdc20 or Cdh1 was made fresh by IVT/T, and pure recombinant checkpoint proteins or inhibitor peptides were added to the IVT/T mixture and incubated for an additional hour at room temperature. In titrations, a dilution series of the checkpoint protein(s) were made before incubation with the Cdc20 co-factor. SDS-PAGE was performed using stand protocols (BioRad, USA).

[2] = system: APC/C^Cdh1; experiment: APC/C^Cdh1 enzyme assay (ubiquitination of 35S-Pds1); assay type: biochemical, Saccharomyces cerevisiae; conditions: 220 μM peptide; 35S-Pds1 substrate; time course 0-60 minutes; vs buffer; n = 3
Procedure: as §1, §2
APC/C assays were performed by adding the reaction contents in following order: 4.3 μL of QAH buffer, 20 μL of rabbit reticulocyte lysate containing Cdc20 or Cdh1 with or without an additional volume of recombinant checkpoint protein(s) or inhibitor peptides, 2.4 μL ubiquitin aldehyde (Boston Biochem, USA), APC/C, 16 μL pre-charged E1/E2/ATP/ubiquitin mix, and 13.3 μL of ^35S-Pds1 with QAH buffer (20 mM HEPES at pH 8.0, 100 mM NaCl, and 1 mM MgCl2). […]

[3] = system: APC/C; experiment: APC/C activity promoted by mutant Cdc20 alleles (Pds1 remaining); assay type: biochemical, Saccharomyces cerevisiae
Procedure: as §2, §3
For APC/C activity assays dried-gels were exposed on a phosphor screen cassette to detect radio-labeled protein. The phosphor screen was scanned by a Typhoon phosphor-imager (GE Healthcare Bio-Sciences, USA), and radio-labeled protein bands in gels were quantified by employing the ImageQuant software (GE Healthcare Bio-Sciences, USA) according to the manufacturer’s protocols. Data were expressed as mean ± standard deviation, and was analyzed using Student’s t-test. Graphs were created using Kaliedograph 4.0 (Synergy Software, USA) and estimates of best-fit curves of a 4-parameter Hill equation were generated to obtain estimates for the median inhibitory concentrations (IC50) and Hill coefficients (Hc) using IgorPro 6.01 (Wavemetrics, USA).
By sequence alignment and amino acid homology alone, the budding yeast KILR-motif may be defined as 201-RILQ-204 (Fig 1A). However, the next residue, Tyrosine Y205 had previously been isolated in a genetic screen for spindle checkpoint by-pass alleles of Cdc20 [21], indicating this Y205 residue may be a target of the spindle checkpoint inhibition, and thus might also be a functional KILR-motif residue that contributes to APC/C activation. To clarify this possibility, we took the initial step to characterize several of the previously isolated spindle checkpoint by-pass mutant alleles of Cdc20 [21], and also Cdc20 mutants in the two highly conserved residues within the Mad2-binding motif, the aspartic acid at D197 of unknown function and the highly conserved Leucine L203 within the KILR-motif based on sequence alignment and homology. […]

Molecule	inhibition of APC/C^Cdc20 activity (in words) [1]	inhibition of APC/C^Cdh1 activity (in words) [2]	ability of mutant Cdc20 to promote APC/C activity (in words) ([3]; vs wild type Cdc20, n = 3)	ability of mutant Cdc20 to promote APC/C activity (in words) ([3]; vs wild type Cdc20, n = 3, listed as Cdc20-CB)
C-box2: C-box2 (Cdc20 130–196) containing the region between the C-box and the Mad2-binding motif (peptide, UniProt P26309 130-196, looked up, fragment) TTSREVDEQFTVAADRYIPILQGASQNKVDPETLHEALPPPNASPISHLRAQTKIVFKQNVAEACGL	observed to inhibit APC/C^Cdc20 activity; also recorded: A significant level of APC/C^Cdc20 inhibition was observed only in the presence of the C-box2 peptide	also inhibited APC/C^Cdh1 activity; also recorded: A significant level of APC/C^Cdh1 inhibition was observed	–	–
Cdc20-CB (I147A, P148A): control mutant with mutations in two residues within the C-box (protein, UniProt P26309 1-610, looked up, variant I147A P148A) APC/C activator protein CDC20: MPESSRDKGNAAISGNRSVLSIASPTKLNILSSDWSRNQGKVSKNSLKRSSSLNIRNSKRPSLQASANSIYSRPKITIGAPPLIRRDSSFFKDEFDAKKDKATFSAYSSRSYPTIGSESVVSQTSLSQPTTSREVDEQFTVAADRYAAILQGASQNKVDPETLHEALPPPNASPISHLRAQTKIVFKQNVAEACGLDMNKRILQYMPEPPKCSSLRQKSYIMKKRTHYSYQQEQKIPDLIKLRKINTNPERILDAPGFQDDFYLNLLSWSKKNVLAIALDTALYLWNATTGDVSLLTDFENTTICSVTWSDDDCHISIGKEDGNTEIWDVETMSLIRTMRSGLGVRIGSLSWLDTLIATGSRSGEIQINDVRIKQHIVSTWAEHTGEVCGLSYKSDGLQLASGGNDNTVMIWDTRTSLPQFSKKTHTAAVKALSWCPYSPNILASGGGQTDKHIHFWNSITGARVGSINTGSQVSSLHWGQSHTSTNGGMMNKEIVATGGNPENAISVYNYETKFKVAEVVHAHEARICCSQLSPDGTTLATVGGDENLKFYKIFDPRCTGRSREDGLMDGMLGLIGKEGCRTNDKENRSKNSSEIHTRRPSSTSQYLIR	–	–	displayed decreased APC/C activity; also recorded: consistently displayed a decrease in APC activity	had no APC/C activity
Cdc20-L203A: mutant allele of Cdc20 in the conserved KILR-motif (protein, UniProt P26309 1-610, looked up, variant L203A) APC/C activator protein CDC20: MPESSRDKGNAAISGNRSVLSIASPTKLNILSSDWSRNQGKVSKNSLKRSSSLNIRNSKRPSLQASANSIYSRPKITIGAPPLIRRDSSFFKDEFDAKKDKATFSAYSSRSYPTIGSESVVSQTSLSQPTTSREVDEQFTVAADRYIPILQGASQNKVDPETLHEALPPPNASPISHLRAQTKIVFKQNVAEACGLDMNKRIAQYMPEPPKCSSLRQKSYIMKKRTHYSYQQEQKIPDLIKLRKINTNPERILDAPGFQDDFYLNLLSWSKKNVLAIALDTALYLWNATTGDVSLLTDFENTTICSVTWSDDDCHISIGKEDGNTEIWDVETMSLIRTMRSGLGVRIGSLSWLDTLIATGSRSGEIQINDVRIKQHIVSTWAEHTGEVCGLSYKSDGLQLASGGNDNTVMIWDTRTSLPQFSKKTHTAAVKALSWCPYSPNILASGGGQTDKHIHFWNSITGARVGSINTGSQVSSLHWGQSHTSTNGGMMNKEIVATGGNPENAISVYNYETKFKVAEVVHAHEARICCSQLSPDGTTLATVGGDENLKFYKIFDPRCTGRSREDGLMDGMLGLIGKEGCRTNDKENRSKNSSEIHTRRPSSTSQYLIR	–	–	displayed decreased APC/C activity; also recorded: had no APC/C activity; also recorded: consistently displayed a decrease in APC activity	–
